Reference: the supplement of paper PMC9112550, “Optimization of the antimicrobial peptide Bac7 by deep mutational scanning” (BMC Biology, 2022)

Tested on: Escherichia coli TOP10
Experiment: shrunken log2 fold change of peptide-encoding DNA abundance (4.5 h post-induction vs induction); higher = less antimicrobial activity (less host growth inhibition)
Details: time post-induction: 4.5 h; library: site-saturation at positions 5, 18, 19, 20
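Also: peptides expressed intracellularly from a pBAD plasmid library in pooled LB shake-flask culture, induced with 0.3% L-arabinose, DNA abundance read by NGS, three biological replicates, DESeq2 with apeglm shrinkage.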

| Sequence | shrunken log2 fold change |
| --- | --- |
| RRIRWRPPRLPRPRPRPQKQPRP | 0.184 |
| RRIRWRPPRLPRPRPRPQLAPRP | 0.351 |
| RRIRWRPPRLPRPRPRPQLDPRP | 0.0393 |
| RRIRWRPPRLPRPRPRPQMKPRP | -0.316 |
| RRIRWRPPRLPRPRPRPQNRPRP | 0.0839 |
| RRIRWRPPRLPRPRPRPQNWPRP | 0.215 |
| RRIRWRPPRLPRPRPRPQPCPRP | 0.179 |
| RRIRWRPPRLPRPRPRPQPGPRP | 0.221 |
| RRIRWRPPRLPRPRPRPQPSPRP | 0.287 |
| RRIRWRPPRLPRPRPRPQPTPRP | 0.334 |
| RRIRWRPPRLPRPRPRPQQGPRP | 0.342 |
| RRIRWRPPRLPRPRPRPQQIPRP | -0.0385 |
| RRIRWRPPRLPRPRPRPQRKPRP | 0.46 |
| RRIRWRPPRLPRPRPRPQRVPRP | 2.3 |
| RRIRWRPPRLPRPRPRPQSKPRP | -0.0549 |
| RRIRWRPPRLPRPRPRPQSRPRP | 0.299 |
| RRIRWRPPRLPRPRPRPQSSPRP | -0.276 |
| RRIRWRPPRLPRPRPRPQTAPRP | 0.282 |
| RRIRWRPPRLPRPRPRPQTVPRP | -0.0322 |
| RRIRWRPPRLPRPRPRPQTYPRP | -1.17 |
| RRIRWRPPRLPRPRPRPQVAPRP | 0.472 |
| RRIRWRPPRLPRPRPRPQVDPRP | 1.5 |
| RRIRWRPPRLPRPRPRPQWHPRP | 0.0415 |
| RRIRWRPPRLPRPRPRPQWRPRP | -0.0345 |
| RRIRWRPPRLPRPRPRPRAKPRP | 0.788 |

| Sequence | shrunken log2 fold change |
| --- | --- |
| RRIRWRPPRLPRPRPRPRARPRP | 0.773 |
| RRIRWRPPRLPRPRPRPRCQPRP | -0.0289 |
| RRIRWRPPRLPRPRPRPRDQPRP | -0.033 |
| RRIRWRPPRLPRPRPRPREFPRP | 0.349 |
| RRIRWRPPRLPRPRPRPREYPRP | 0.0698 |
| RRIRWRPPRLPRPRPRPRFTPRP | 0.307 |
| RRIRWRPPRLPRPRPRPRGCPRP | 0.961 |
| RRIRWRPPRLPRPRPRPRGIPRP | 0.234 |
| RRIRWRPPRLPRPRPRPRGSPRP | 0.495 |
| RRIRWRPPRLPRPRPRPRGTPRP | 0.873 |
| RRIRWRPPRLPRPRPRPRGWPRP | 1.13 |
| RRIRWRPPRLPRPRPRPRIMPRP | 0.12 |
| RRIRWRPPRLPRPRPRPRIRPRP | 0.0716 |
| RRIRWRPPRLPRPRPRPRISPRP | 0.305 |
| RRIRWRPPRLPRPRPRPRKFPRP | 0.295 |
| RRIRWRPPRLPRPRPRPRKVPRP | 0.302 |
| RRIRWRPPRLPRPRPRPRLVPRP | 0.476 |
| RRIRWRPPRLPRPRPRPRPAPRP | 0.865 |
| RRIRWRPPRLPRPRPRPRQIPRP | 0.459 |
| RRIRWRPPRLPRPRPRPRRKPRP | 0.178 |
| RRIRWRPPRLPRPRPRPRRWPRP | 0.482 |
| RRIRWRPPRLPRPRPRPRSQPRP | 0.434 |
| RRIRWRPPRLPRPRPRPRVHPRP | 0.341 |
| RRIRWRPPRLPRPRPRPRVKPRP | 0.13 |
| RRIRWRPPRLPRPRPRPRVYPRP | -0.401 |

| Sequence | shrunken log2 fold change |
| --- | --- |
| RRIRWRPPRLPRPRPRPRWNPRP | -0.0693 |
| RRIRWRPPRLPRPRPRPRYNPRP | -0.396 |
| RRIRWRPPRLPRPRPRPRYWPRP | 0.185 |
| RRIRWRPPRLPRPRPRPRYYPRP | -0.0581 |
| RRIRWRPPRLPRPRPRPSAHPRP | 0.062 |
| RRIRWRPPRLPRPRPRPSCVPRP | 0.121 |
| RRIRWRPPRLPRPRPRPSDDPRP | 0.328 |
| RRIRWRPPRLPRPRPRPSDLPRP | -0.175 |
| RRIRWRPPRLPRPRPRPSECPRP | 0.0183 |
| RRIRWRPPRLPRPRPRPSENPRP | -0.134 |
| RRIRWRPPRLPRPRPRPSEYPRP | -0.221 |
| RRIRWRPPRLPRPRPRPSGPPRP | 0.114 |
| RRIRWRPPRLPRPRPRPSGYPRP | 0.141 |
| RRIRWRPPRLPRPRPRPSHCPRP | -0.689 |
| RRIRWRPPRLPRPRPRPSHEPRP | 0.0227 |
| RRIRWRPPRLPRPRPRPSKRPRP | 0.149 |
| RRIRWRPPRLPRPRPRPSLEPRP | 0.067 |
| RRIRWRPPRLPRPRPRPSMDPRP | -0.128 |
| RRIRWRPPRLPRPRPRPSMEPRP | 0.0397 |
| RRIRWRPPRLPRPRPRPSPCPRP | -0.214 |
| RRIRWRPPRLPRPRPRPSPNPRP | 0.106 |
| RRIRWRPPRLPRPRPRPSQWPRP | -0.0949 |
| RRIRWRPPRLPRPRPRPSRGPRP | 0.532 |
| RRIRWRPPRLPRPRPRPSSFPRP | -0.00317 |
| RRIRWRPPRLPRPRPRPSSWPRP | 0.0927 |

| Sequence | shrunken log2 fold change |
| --- | --- |
| RRIRWRPPRLPRPRPRPSTQPRP | 0.0274 |
| RRIRWRPPRLPRPRPRPSWDPRP | 0.251 |
| RRIRWRPPRLPRPRPRPSWGPRP | 0.121 |
| RRIRWRPPRLPRPRPRPSWKPRP | -0.0536 |
| RRIRWRPPRLPRPRPRPSYEPRP | 0.086 |
| RRIRWRPPRLPRPRPRPSYWPRP | -0.415 |
| RRIRWRPPRLPRPRPRPTAHPRP | 0.306 |
| RRIRWRPPRLPRPRPRPTASPRP | 0.977 |
| RRIRWRPPRLPRPRPRPTEDPRP | 0.0661 |
| RRIRWRPPRLPRPRPRPTFEPRP | 0.13 |
| RRIRWRPPRLPRPRPRPTGCPRP | 0.141 |
| RRIRWRPPRLPRPRPRPTGNPRP | 0.2 |
| RRIRWRPPRLPRPRPRPTISPRP | 0.21 |
| RRIRWRPPRLPRPRPRPTIVPRP | -0.33 |
| RRIRWRPPRLPRPRPRPTKLPRP | 0.156 |
| RRIRWRPPRLPRPRPRPTLYPRP | -0.0322 |
| RRIRWRPPRLPRPRPRPTMEPRP | 0.00667 |
| RRIRWRPPRLPRPRPRPTNMPRP | -0.154 |
| RRIRWRPPRLPRPRPRPTPVPRP | 0.49 |
| RRIRWRPPRLPRPRPRPTQHPRP | 0.333 |
| RRIRWRPPRLPRPRPRPTSCPRP | 0.581 |
| RRIRWRPPRLPRPRPRPTTAPRP | 0.432 |
| RRIRWRPPRLPRPRPRPTTEPRP | 0.207 |
| RRIRWRPPRLPRPRPRPTTHPRP | 0.163 |
| RRIRWRPPRLPRPRPRPTVFPRP | 0.255 |

| Sequence | shrunken log2 fold change |
| --- | --- |
| RRIRWRPPRLPRPRPRPTVLPRP | 0.188 |
| RRIRWRPPRLPRPRPRPTWKPRP | 0.261 |
| RRIRWRPPRLPRPRPRPTYIPRP | -0.428 |
| RRIRWRPPRLPRPRPRPVALPRP | 0.459 |
| RRIRWRPPRLPRPRPRPVCHPRP | 0.0811 |
| RRIRWRPPRLPRPRPRPVELPRP | -0.00876 |
| RRIRWRPPRLPRPRPRPVHRPRP | 0.181 |
| RRIRWRPPRLPRPRPRPVHSPRP | -0.37 |
| RRIRWRPPRLPRPRPRPVISPRP | -0.0992 |
| RRIRWRPPRLPRPRPRPVKMPRP | 0.125 |
| RRIRWRPPRLPRPRPRPVLAPRP | 0.582 |
| RRIRWRPPRLPRPRPRPVLTPRP | 0.147 |
| RRIRWRPPRLPRPRPRPVMKPRP | 0.12 |
| RRIRWRPPRLPRPRPRPVMQPRP | 0.294 |
| RRIRWRPPRLPRPRPRPVMYPRP | -0.0288 |
| RRIRWRPPRLPRPRPRPVNDPRP | 0.118 |
| RRIRWRPPRLPRPRPRPVQIPRP | 0.278 |
| RRIRWRPPRLPRPRPRPVRPPRP | 0.305 |
| RRIRWRPPRLPRPRPRPVTRPRP | -0.0273 |
| RRIRWRPPRLPRPRPRPVWKPRP | 0.0259 |
| RRIRWRPPRLPRPRPRPVYAPRP | 0.31 |
| RRIRWRPPRLPRPRPRPVYNPRP | -0.817 |
| RRIRWRPPRLPRPRPRPWCNPRP | -0.0973 |
| RRIRWRPPRLPRPRPRPWDYPRP | -0.0902 |
| RRIRWRPPRLPRPRPRPWELPRP | -0.0481 |

| Sequence | shrunken log2 fold change |
| --- | --- |
| RRIRWRPPRLPRPRPRPWEVPRP | -0.0113 |
| RRIRWRPPRLPRPRPRPWFIPRP | -0.436 |
| RRIRWRPPRLPRPRPRPWGPPRP | 0.384 |
| RRIRWRPPRLPRPRPRPWGSPRP | 0.0134 |
| RRIRWRPPRLPRPRPRPWHAPRP | 0.0362 |
| RRIRWRPPRLPRPRPRPWICPRP | -0.137 |
| RRIRWRPPRLPRPRPRPWIGPRP | 0.0176 |
| RRIRWRPPRLPRPRPRPWIRPRP | -0.124 |
| RRIRWRPPRLPRPRPRPWKDPRP | -0.000687 |
| RRIRWRPPRLPRPRPRPWMFPRP | 0.00732 |
| RRIRWRPPRLPRPRPRPWMPPRP | -0.127 |
| RRIRWRPPRLPRPRPRPWMSPRP | -0.353 |
| RRIRWRPPRLPRPRPRPWQGPRP | -0.11 |
| RRIRWRPPRLPRPRPRPWQLPRP | -0.18 |
| RRIRWRPPRLPRPRPRPWRCPRP | 0.144 |
| RRIRWRPPRLPRPRPRPWRHPRP | -0.141 |
| RRIRWRPPRLPRPRPRPWSWPRP | 1.16 |
| RRIRWRPPRLPRPRPRPWVFPRP | 0.262 |
| RRIRWRPPRLPRPRPRPWVSPRP | -0.0613 |
| RRIRWRPPRLPRPRPRPWWPPRP | 0.19 |
| RRIRWRPPRLPRPRPRPWYNPRP | -0.119 |
| RRIRWRPPRLPRPRPRPYAIPRP | -0.347 |
| RRIRWRPPRLPRPRPRPYAVPRP | 0.0097 |
| RRIRWRPPRLPRPRPRPYCHPRP | -0.437 |
| RRIRWRPPRLPRPRPRPYDHPRP | -0.207 |
